Test results taken from the supplement of paper PMC9170038.

Test system: K4 kissing-loop RNA reporter
Test: apparent KD of K4 kissing-loop reporter; higher = weaker reporter binding
Settings: Eterna round: R107
Experimental: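 RNA-MaP round R107: designed RNA switches with theophylline, tryptophan, arginine or FMN aptamers are transcribed on-chip within common flanks. They are titrated with a labelled K4 kissing-loop RNA reporter in RNA-MaP buffer (100 mM Tris pH 7.5, 80 mM KCl, 4 mM MgCl2), without ligand or with the indicated ligand. Median apparent KD per design.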

[1] = input ligand: theophylline 20 uM
[2] = input ligand: tryptophan 2.4 mM
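Also: bound reporter read as fluorescence of individual clusters on recovered sequencing chips by microscopy, with normalized cluster intensities fitted with a binding model.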

Sequence | apparent KD of K4 kissing-loop reporter (input ligand: FMN 200 uM) [nM] | apparent KD of K4 kissing-loop reporter (input ligand: arginine 13.2 mM) [nM] | apparent KD of K4 kissing-loop reporter (input ligand: none) [nM] | apparent KD of K4 kissing-loop reporter [1] [nM] | apparent KD of K4 kissing-loop reporter [2] [nM]
UUAUUGAGCGUUUGUGAGAAGGCGUUCUUCAAGGAUAUCGACGUAACGAGAAGGUGAUUCGUUCCGAGUGAUGUUCGGUACGGGC [theeternabot_sameState_KL_FMN_A_4] | 222 | 185 | 234 | 240 | 199
UUCAGUGAUGUUGAACACUGUUGUAUAAACUAGGAUAUGCUGAUAAGCAGAAGGAGUGAUGUUCCGUUCAUCAUCAGAAUUAAAU [KL-XFMN-A3] | 673 | 400 | 360 | 424 | 250
UUCUACGAGUGAUGUUCGUAGUGUAAUCGCUAGGAUAUCGUUUUUUCGAGAAGGAGCGUCGAAGUGAUACGAAAGUAUCGCUUCG [FMN A 13] | 151 | 258 | 300 | 284 | 284
UUCUACGAGUGAUGUUCGUAGUGUAUUCACUAGGAUAUCGUUUUUUCGAGAAGGAGUGAGGAAGUGAUACGAAAGUAUCGCUUCC [FMN A 15] | 192 | 353 | 431 | 361 | 378
UUGAGCCGGACUCAAGUCCGGCUCUGCGAGCGAGGACCGGUACGGCCGCCACUCGGUGCAGUGAUGUUGCAUGGCCGCAAGGCCG [#2 Exclusion - Tryptophan A Attempt #13 (HarryS)] | 413 | 133 | 482 | 404 | 520
UUGAGCCUGACGCAAGUCAGGCUCUGCGAGCGAGGACCGGUACGGCCGCCACUCGGUGCAGUGAUGUUGCAUGGCCGCAAGGCCG [#2 Exclusion - Tryptophan A Attempt #17 (HarryS)] | 316 | 299 | 318 | 394 | 441
UUGAUAUGAUAAUAUCCUGUUUGAUAAAGACAGGAUAUAGAAAAUACUAGAAGGGUCAUUAUAUGCAGUGAUGUUGCAAAUAAGU [Exclusion FMN A Gf 23] | 42.2 | 67.3 | 45.7 | 66.2 | 37.6
UUGAUAUGAUAGUAUCUUGUUUGAUAAAGGCAGGAUAUCGUAUAUUUGAGAAGGGCCAUUAUAUGCAGUGAUGUUGCAAAUAAGU [Exclusion FMN A Gf 25] | 43.5 | 56.7 | 41.3 | 61.4 | 40
UUGUGCAGCAAUCGAGUGAUGUUCGACGAUACCAGCCUCGAUAGAGGCCCUUGGCAGCGUAUCAUCACAUGCCAAGAGCUGCACU [#SwitchBubble 5] | 530 | 362 | 428 | 368 | 419
UUUAUAAUGUCGGCCGCCACUGGAUUAAUAUUUGUAUAAUCUAGUUCUGAGUGAUGUUUAGAGUCCAGGACCGGGACAUUUGUUA [#10 K4 Tryptophan B Exclusion] | 701 | 515 | 651 | 788 | 520
UUUAUAUAGUCGGCCGCCACUGAUUUUUAUAUAUGUUUAUGUUUAUACGAGUGAUGUUCGUUAUUCAGGACCGGGACUUUUGUUA [JR_SSTryptoB_Sub016] | 108 | 133 | 109 | 117 | 102
UUUAUUAAGACGGCCGCCACUGAAUUAGAGUGAUGUUCUAAAAUUUUUAAUUUUUUUUUUUUCAGCAGGACCGGGUCAAUUAUUA [JR_SSTryptoB_Sub012] | 128 | 95.3 | 116 | 142 | 94.5
UUUCGGUUCUGAGGAUAUUCGGACAAAUAUAGUGAUGUUGUAUAAGGAGGAGGGUGUUGGCAGUGCGGAGAAGGCAGAAGAGGAU [ExFMNB.U] | 848 | 737 | 992 | 556 | 446
UUUCGUAGAAGUGAUACCAGACUUGAAAGUGAUGUUUUCCAAUAAUUUAAAUUUUUAGCUGUCCCUUGGCAGCACAGUUUAUUUA [JR_Nu_ExcTheophyB_Sub026] | 218 | 298 | 263 | 334 | 165
UUUGAAAUGACUGAUACCAGUGAAAAUAUAUGUAGUGAUGUUAUAUACUAAUUUAAUAAGCGCCCUUGGCAGCAGUAUGAAUUAU [AstrosExc-theB#16] | 763 | 565 | 927 | 527 | 560
UUUUACGAGUGAUGUUCGUAAUGUAAUAGUUAGGAUAUCGUUUUUUCGAGAAGGAACUUCGAAGUGAUACGAAAGUAUCGCUUCG [FMN A 9] | 127 | 160 | 184 | 154 | 159
UUUUAGGUAUCUGAUACCAGAGAAAAUAUAUGUAGUGAUGUUAUAUACAAAAUAAUUAAGCUCCCUUGGCAGCAGUAUUAAUUUU [AstrosExc-TheB#3] | 825 | 742 | 854 | 917 | 717
UUUUGCGCGUACGAUACCAGUAUCUGUAAGAGUGAUGUUCAGCGCUGAAGACAGCAGCGAUACCCUUGGCAGCGUUACAUGCUAG [theeternabot_sameState_KL_Theo_B_22] | 797 | 422 | 553 | 475 | 530
UUUUUGGAGAAUUAUAGUGAUGUUAUGAAGGAGGAUAUCUGGAGAUGGAGAAGGCCUAGUGGCUCAGCCAUGGAGGGUGGGUGGG [ExFMNA.aA] | 1110 | 527 | 894 | 655 | 611
UUUUUUAAUGGAAGGAGCGCGUGGGCGCAGUGAUGUUGCGCCCGACAUCACUUCAACUUAACGCAGGUAGGUCGCCAUUAUUUUU [Arginine B (Excl) V6] | 136 | 128 | 122 | 119 | 127
